{"source": "paper PMC5013595", "proteins": {"B1": {"name": "interferon-γ receptor 2 (IFNγR2): N110Q (protein)", "parent chain": "MRPTLLWSLLLLLGVFAAAAAAPPDPLSQLPAPQHPKIRLYNAEQVLSWEPVALSNSTRPVVYQVQFKYTDSKWFTADIMSIGVNCTQITATECDFTAASPSAGFPMDFNVTLRLRAELGALHSAWVTMPWFQHYRNVTVGPPENIEVTPGEGSLIIRFSSPFDIADTSTAFFCYYVHYWEKGGIQQVKGPFRSNSISLDNLKPSRVYCLQVQAQLLWNKSNIFRVGHLSNISCYETMADASTELQQVILISVGTFSLLSVLAGACFFLVLKYRGLIKYWFHTPPSIPLQIEEYLKDPTQPILEALDKDSSPKDDVWDSVSIISFPEKEQEDVLQTL"}, "B2": {"name": "interferon-γ receptor 2 (IFNγR2): Endo H (protein)", "parent chain": "B1 parent chain"}, "B3": {"name": "interferon-γ receptor 2 (IFNγR2): N56Q, N110Q, N137Q and N231Q (protein)", "parent chain": "B1 parent chain"}, "B4": {"name": "interferon-γ receptor 2 (IFNγR2): N231Q (protein)", "parent chain": "B1 parent chain"}, "B5": {"name": "interferon-γ receptor 2 (IFNγR2): N137Q (protein)", "parent chain": "B1 parent chain"}, "B6": {"name": "interferon-γ receptor 2 (IFNγR2): PNGase F (protein)", "parent chain": "B1 parent chain"}}, "key": {"[1]": {"experiment": "secretion into S2 culture medium", "conditions": "glycan lost; control: wild type"}, "[2]": {"experiment": "size-exclusion chromatography", "conditions": "glycan lost; control: glycosylated IFNγR2"}}}
{"protein": "B1", "values": [{"measurement": "expression_or_secretion", "setting": "[1]", "result": "abolishes"}]}
{"protein": "B2", "values": [{"measurement": "oligomerisation", "setting": "[2]", "result": "no change"}]}
{"protein": "B3", "values": [{"measurement": "expression_or_secretion", "setting": "[1]", "result": "abolishes"}]}
{"protein": "B4", "values": [{"measurement": "expression_or_secretion", "setting": "[1]", "result": "abolishes"}]}
{"protein": "B5", "values": [{"measurement": "expression_or_secretion", "setting": "[1]", "result": "abolishes"}]}
{"protein": "B6", "values": [{"measurement": "oligomerisation", "setting": "[2]", "result": "increases"}]}
